Experimental data reported in patent US20140178389A1 (AbbVie / Abbott, published 2014).
Values belong to the binder of their own block, whether it stands above or below them.

How the values were obtained:
[1] = target: T1, recombinant human IL-1β (human, UniProt P01584 117-269); assay: cell-based or functional assay
[2] = target: T2, purified native human IL-1β (human, UniProt P01584 117-269); assay: cell-based or functional assay
[3] = target: T3, recombinant cynomolgus IL-1β (cynomolgus, UniProt P79182 117-268); assay: cell-based or functional assay
T3 sequence (looked up): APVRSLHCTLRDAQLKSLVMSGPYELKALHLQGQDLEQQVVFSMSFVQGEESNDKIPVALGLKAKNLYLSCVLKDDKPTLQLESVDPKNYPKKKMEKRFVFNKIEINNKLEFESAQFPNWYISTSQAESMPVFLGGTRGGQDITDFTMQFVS

[4] = target: T4, native human IL-1α present in crude supernatants (human, UniProt P01583 113-271, limits assumed); assay: cell-based or functional assay
T4 sequence (looked up): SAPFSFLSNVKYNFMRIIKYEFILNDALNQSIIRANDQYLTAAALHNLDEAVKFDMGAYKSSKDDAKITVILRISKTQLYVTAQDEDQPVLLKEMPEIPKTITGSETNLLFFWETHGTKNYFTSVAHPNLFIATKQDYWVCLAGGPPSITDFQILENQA

[5] = target: T5, recombinant cynomolgus IL-1α (cynomolgus, UniProt P79340 113-271); assay: cell-based or functional assay
T5 sequence (looked up): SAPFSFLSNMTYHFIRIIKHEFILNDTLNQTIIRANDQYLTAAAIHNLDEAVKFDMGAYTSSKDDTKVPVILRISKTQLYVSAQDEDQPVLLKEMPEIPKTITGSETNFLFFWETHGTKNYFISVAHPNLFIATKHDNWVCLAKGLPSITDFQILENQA

[6] = target: T6, recombinant human IL-1α (human, UniProt P01583 113-271); assay: cell-based or functional assay
T6 sequence: T4 sequence (looked up)

[7] = target: T1, recombinant human IL-1β; assay: SPR (Biacore), Ig captured via goat anti-human IgG Fc, antigen in solution
Method: (§1) Goat IgGs specific to human IgG Fc were covalently linked to the carboxy methyl dextran matrix on the CMS biosensor chip via free amine groups using an amine coupling kit and the immobilization wizard option in the Biacore instruments controlling software. Specifically, carboxyl groups of the dextran matrix on the chip were activated with NHS and EDC. Goat anti-human IgG Fc antibodies (25 μg/mL), diluted in 10 mM sodium acetate, pH 4.5, were injected across the activated surface. Once the level of binding response reached the desired value, unreacted groups were deactivated by injection of 1M ethanolamine. For binding of IL-1α & IL-1β to captured Ig, a 1 μg/mL concentration of Ig in HBS-EP+ was injected over the goat anti-human IgG Fc surface at a flow rate of 10 μL/min for 1 minute. The net difference in the baseline signal and the signal after the completion of the Ig injection was taken to represent the amount of bound Ig.

[8] = target: T3, recombinant cynomolgus IL-1β; assay: as above
Method: as §1

[9] = target: T5, recombinant cynomolgus IL-1α; assay: as above
Method: as §1

[10] = target: T6, recombinant human IL-1α; assay: as above
Method: as §1

[11] = target: T1, recombinant human IL-1β; assay: SPR (BIAcore), DVD-Ig captured via goat anti-human IgG Fc
Method: as §1
(§2) The potency of the 5 DVD-Igs containing affinity matured h1B12.1 domains to recombinant and native IL-1 antigens was determined using the MRC-5 bioassay as shown in Table 24. The binding kinetics of the DVD-Igs to recombinant human and cynomolgus IL-1α and IL-1β were determined using surface plasmon resonance. In some cases, the off-rate could not be determined as they reached the limit of detection of the instrument.

[12] = target: T3, recombinant cynomolgus IL-1β; assay: as above
Method: as §1, §2

[13] = target: T5, recombinant cynomolgus IL-1α; assay: as above
Method: as §1, §2

[14] = target: T6, recombinant human IL-1α; assay: as above
Method: as §1, §2

[15] = target: T1, recombinant human IL-1β; assay: SPR (BIAcore); KD calculated assuming an off-rate of 1x10^-6
Method: as §1, §2

[16] = target: T1, recombinant human IL-1β; assay: SPR (BIAcore); the off-rate reached the limit of detection of the instrument
Method: as §1, §2

[17] = target: T1, recombinant human IL-1β; assay: cell-based or functional assay; remark: listed apart in the source
[18] = target: T2, purified native human IL-1β; assay: cell-based or functional assay; remark: listed apart in the source
[19] = target: T3, recombinant cynomolgus IL-1β; assay: cell-based or functional assay; remark: listed apart in the source
[20] = target: T4, native human IL-1α present in crude …; assay: cell-based or functional assay; remark: listed apart in the source
[21] = target: T5, recombinant cynomolgus IL-1α; assay: cell-based or functional assay; remark: listed apart in the source
[22] = target: T6, recombinant human IL-1α; assay: cell-based or functional assay; remark: listed apart in the source
[23] = target: T1, recombinant human IL-1β; assay: SPR (Biacore), average of 2 experiments
Method: as §1

[24] = target: T3, recombinant cynomolgus IL-1β; assay: SPR (Biacore), average of 2 experiments
Method: as §1

[25] = target: T1, recombinant human IL-1β; assay: SPR (Biacore), Expt 1
Method: as §1

[26] = target: T3, recombinant cynomolgus IL-1β; assay: SPR (Biacore), Expt 1
Method: as §1

[27] = target: T1, recombinant human IL-1β; assay: SPR (Biacore), Expt 2
Method: as §1

[28] = target: T3, recombinant cynomolgus IL-1β; assay: SPR (Biacore), Expt 2
Method: as §1

Potency IC50 (pM), MRC-5 bioassay (IL-8 secretion) [1]: 26 pM
Potency IC50 (pM), MRC-5 bioassay (IL-8 secretion) [2]: 156 pM
Potency IC50 (pM), MRC-5 bioassay (IL-8 secretion) [3]: 461 pM
Potency IC50 (pM), MRC-5 bioassay (IL-8 secretion) [4]: 79 pM
Potency IC50 (pM), MRC-5 bioassay (IL-8 secretion) [5]: 2510 pM
Potency IC50 (pM), MRC-5 bioassay (IL-8 secretion) [6]: 27 pM
Kd [7]: < 820 pM
koff [7]: 0.00082 s⁻¹
kon [7]: > 1e+06 M⁻¹ s⁻¹
Kd [8]: 110 pM
koff [8]: 0.0008 s⁻¹
kon [8]: 7.3e+06 M⁻¹ s⁻¹
Kd [9]: 3500 pM
koff [9]: 0.00026 s⁻¹
kon [9]: 74000 M⁻¹ s⁻¹
Kd [10]: 120 pM
koff [10]: 2.4e-05 s⁻¹
kon [10]: 210000 M⁻¹ s⁻¹
B1: 1B12.1-SS-X3 DVD-Ig IgG1/k mut (234,235) (bispecific antibody)
heavy: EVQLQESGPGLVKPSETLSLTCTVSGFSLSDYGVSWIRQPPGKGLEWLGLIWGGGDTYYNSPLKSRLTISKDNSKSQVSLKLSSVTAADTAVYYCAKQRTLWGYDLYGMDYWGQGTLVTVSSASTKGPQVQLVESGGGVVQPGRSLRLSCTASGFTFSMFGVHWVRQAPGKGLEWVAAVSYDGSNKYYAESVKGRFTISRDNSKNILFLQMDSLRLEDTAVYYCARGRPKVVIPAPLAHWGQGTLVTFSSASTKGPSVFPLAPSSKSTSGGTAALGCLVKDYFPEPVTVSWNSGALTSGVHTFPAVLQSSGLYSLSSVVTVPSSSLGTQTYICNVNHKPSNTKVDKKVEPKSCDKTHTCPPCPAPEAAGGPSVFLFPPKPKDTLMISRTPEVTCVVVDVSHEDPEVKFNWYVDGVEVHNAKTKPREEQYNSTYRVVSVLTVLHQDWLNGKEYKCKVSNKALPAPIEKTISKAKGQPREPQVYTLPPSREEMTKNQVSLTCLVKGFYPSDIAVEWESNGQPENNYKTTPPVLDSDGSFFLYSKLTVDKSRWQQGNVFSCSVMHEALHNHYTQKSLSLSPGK
light: DTQVTQSPSSLSASVGDRVTITCITSTDIDVDMNWYQQKPGKPPKLLISQGNTLRPGVPSRFSSSGSGTDFTFTISSLQPEDFATYYCLQSDNLPLTFGQGTKLEIKRTVAAPDIQMTQSPSSVSASVGDRVTITCRASQGISSWLAWYQQKPGKAPKLLIYEASNLETGVPSRFSGSGSGSDFTLTISSLQPEDFATYYCQQTSSFLLSFGGGTKVEHKRTVAAPSVFIFPPSDEQLKSGTASVVCLLNNFYPREAKVQWKVDNALQSGNSQESVTEQDSKDSTYSLSSTLTLSKADYEKHKVYACEVTHQGLSSPVTKSFNRGEC
notes: also called PR-1308565

kon [11]: 3.9e+07 M⁻¹ s⁻¹
Kd [12]: 0.67 pM
koff [12]: 1.2e-05 s⁻¹
kon [12]: 1.8e+07 M⁻¹ s⁻¹
Kd [13]: 2300 pM
koff [13]: 0.00024 s⁻¹
kon [13]: 100000 M⁻¹ s⁻¹
Kd [14]: 30 pM
koff [14]: 4.2e-06 s⁻¹
kon [14]: 140000 M⁻¹ s⁻¹
Kd [15]: < 0.026 pM
koff [16]: < 1e-06 s⁻¹
Potency (IC50) pM, MRC-5 bioassay [17]: 42.2 pM
Potency (IC50) pM, MRC-5 bioassay [18]: 0.998 pM
Potency (IC50) pM, MRC-5 bioassay [19]: 2.13 pM
Potency (IC50) pM, MRC-5 bioassay [20]: 50.4 pM
Potency (IC50) pM, MRC-5 bioassay [21]: 1900 pM
Potency (IC50) pM, MRC-5 bioassay [22]: 41.3 pM
B2: DVD3-h1B12.34-SS-X3, human anti-IL-1α/β DVD IgG1/k mut (234,235) (bispecific antibody)
heavy: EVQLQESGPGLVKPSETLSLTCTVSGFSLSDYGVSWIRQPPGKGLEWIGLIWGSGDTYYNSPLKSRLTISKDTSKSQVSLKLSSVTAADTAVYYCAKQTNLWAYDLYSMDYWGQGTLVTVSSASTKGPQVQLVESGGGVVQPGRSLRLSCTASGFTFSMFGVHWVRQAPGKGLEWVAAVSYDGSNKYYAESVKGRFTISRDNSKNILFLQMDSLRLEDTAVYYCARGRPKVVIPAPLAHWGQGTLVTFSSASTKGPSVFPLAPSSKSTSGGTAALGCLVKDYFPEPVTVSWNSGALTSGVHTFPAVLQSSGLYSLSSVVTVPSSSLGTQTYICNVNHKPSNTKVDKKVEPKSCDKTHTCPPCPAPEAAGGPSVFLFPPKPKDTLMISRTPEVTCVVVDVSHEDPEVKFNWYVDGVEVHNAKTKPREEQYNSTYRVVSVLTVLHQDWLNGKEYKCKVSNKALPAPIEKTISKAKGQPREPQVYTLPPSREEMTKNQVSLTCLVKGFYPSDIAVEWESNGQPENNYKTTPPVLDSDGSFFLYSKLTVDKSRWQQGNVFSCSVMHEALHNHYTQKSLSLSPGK
light: DIQMTQSPSSLSASVGDRVTITCQASQDIDDDLNWYQQKPGKAPKLLISLASILRPGVPSRFSGSGSGTDFTFTISSLQPEDFATYYCLQSDSFPLTFGQGTKLEIKRTVAAPDIQMTQSPSSVSASVGDRVTITCRASQGISSWLAWYQQKPGKAPKLLIYEASNLETGVPSRFSGSGSGSDFTLTISSLQPEDFATYYCQQTSSFLLSFGGGTKVEHKRTVAAPSVFIFPPSDEQLKSGTASVVCLLNNFYPREAKVQWKVDNALQSGNSQESVTEQDSKDSTYSLSSTLTLSKADYEKHKVYACEVTHQGLSSPVTKSFNRGEC
notes: also called PR-1358318

Potency IC50 (pM), MRC-5 bioassay (IL-8 secretion) [1]: 691 pM
Potency IC50 (pM), MRC-5 bioassay (IL-8 secretion) [2]: 214 pM
Potency IC50 (pM), MRC-5 bioassay (IL-8 secretion) [3]: 352 pM
Kd [23]: 140 pM
koff [23]: 0.00077 s⁻¹
kon [23]: 5.7e+06 M⁻¹ s⁻¹
Kd [24]: 550 pM
koff [24]: 0.00092 s⁻¹
kon [24]: 1.7e+06 M⁻¹ s⁻¹
Kd [25]: 140 pM
koff [25]: 0.00076 s⁻¹
kon [25]: 5.5e+06 M⁻¹ s⁻¹
Kd [26]: 490 pM
koff [26]: 0.00098 s⁻¹
kon [26]: 2e+06 M⁻¹ s⁻¹
Kd [27]: 130 pM
koff [27]: 0.00077 s⁻¹
kon [27]: 5.8e+06 M⁻¹ s⁻¹
Kd [28]: 600 pM
koff [28]: 0.00085 s⁻¹
kon [28]: 1.4e+06 M⁻¹ s⁻¹
B3: 1B12.9, human anti-IL-1β IgG1/k mut (234,235) (antibody, V domains shown)
VH: EVQLQESGPGLVKPSETLSLTCTVSGFSLSDYGVSWIRQPPGKGLEWLGLIWGGGDTYYNSPLKSRLTISKDNSKSQVSLKLSSVTAADTAVYYCAKQRTLWGYDLYGMDYWGQGTLVTVSS
VL: DTQMTQSPSSLSASVGDRVTITCITSTDIDVDMNWYQQKPGKPPKLLISQGNTLRPGVPSRFSSSGSGTDFTFTISSLQPEDFATYYCLQSDNLPLTFGQGTKLEIKR
notes: also called PR-1317335; mAb 1B12.9

Potency IC50 (pM), MRC-5 bioassay (IL-8 secretion) [1]: 913 pM
Potency IC50 (pM), MRC-5 bioassay (IL-8 secretion) [2]: 329 pM
Potency IC50 (pM), MRC-5 bioassay (IL-8 secretion) [3]: 410 pM
B4: Humanized monoclonal antibody 1B12.1 (antibody, V domains shown)
VH: B3 VH
VL: DTQVTQSPSSLSASVGDRVTITCITSTDIDVDMNWYQQKPGKPPKLLISQGNTLRPGVPSRFSSSGSGTDFTFTISSLQPEDFATYYCLQSDNLPLTFGQGTKLEIK
